Reference: PMC4087167 (Cell, 2014)

B1: GRLBD(F602S) (domain or fragment, UniProt P04150 521-777, looked up)
chain: VPATLPQLTPTLVSLLEVIEPEVLYAGYDSSVPDSTWRIMTTLNMLGGRQVIAAVKWAKAIPGFRNLHLDDQMTLLQYSWMSLMAFALGWRSYRQSSANLLCFAPDLIINEQRMTLPCMYDQCKHMLYVSSELHRLQVSYEEYLCMKTLLLLSSVPKDGLKSQELFDEIRMTYIKELGKAIVKREGNSSQNWQRFYQLTKLLDSMHEVVENLLNYCFQTFLDKTMSIEFPEMLAEIITNQIPKYSNGNIKKLLFHQK

Columns and labels:
[1] = target: Hsp90(D93N) (human, UniProt P07900 1-732, D93N); assay: pull-down
[2] = target: Hsp90(E47A) (human, UniProt P07900 1-732, E47A); assay: pull-down
[3] = target: Human HOP (human, UniProt P31948 1-543); assay: pull-down
[4] = target: T1, Human Hsp90α (human, UniProt P07900 1-732); assay: pull-down
[5] = target: T1, Human Hsp90α; assay: cryo-EM structure
[6] = target: B1; assay: pull-down

| binding result [1] | binding result [2] | binding result [3] | binding result [4] | binding result [5] | binding result [6] | Binder |
| --- | --- | --- | --- | --- | --- | --- |
| binds | binds | binds | binds | – | – | B1 |
| – | – | – | – | binds | – | MBP-GRLBD(F602S) (domain or fragment, UniProt P04150 521-777, looked up) VPATLPQLTPTLVSLLEVIEPEVLYAGYDSSVPDSTWRIMTTLNMLGGRQVIAAVKWAKAIPGFRNLHLDDQMTLLQYSWMSLMAFALGWRSYRQSSANLLCFAPDLIINEQRMTLPCMYDQCKHMLYVSSELHRLQVSYEEYLCMKTLLLLSSVPKDGLKSQELFDEIRMTYIKELGKAIVKREGNSSQNWQRFYQLTKLLDSMHEVVENLLNYCFQTFLDKTMSIEFPEMLAEIITNQIPKYSNGNIKKLLFHQK |
| – | – | – | binds | – | binds | Human p23 (natural protein, UniProt Q15185 1-160, looked up) MQPASAKWYDRRDYVFIEFCVEDSKDVNVNFEKSKLTFSCLGGSDNFKHLNEIDLFHCIDPNDSKHKRTDRSILCCLRKGESGQSWPRLTKERAKLNWLSVDFNNWKDWEDDSDEDMSNFDRFSEMMNNMGGDEDVDLPEVDGADDDSQDSDDEKMPDLE |
